Source: article PMC8062686, “Structural variation at the maize WUSCHEL1 locus alters stem cell organization in inflorescences”

Biological target: T1, GST-ZmRR8 DNA-binding domain (Zea mays, UniProt Q9AV93 191-262)
T1 sequence: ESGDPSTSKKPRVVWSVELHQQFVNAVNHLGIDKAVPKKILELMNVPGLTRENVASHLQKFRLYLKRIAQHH
Assay: EMSA; 1x LightShift Binding Buffer, 50 ng/uL poly(dI/dC), 2.5% glycerol, room temperature 20 min, 6% DNA retardation gel; pH and salt not given
Conditions: protein: recombinant; tags: GST (pET-60-DEST)

B1: m119 bp (three AGATAT to TTTTTT) (dsDNA)
DNA 1: TAATTTTTTCGTCGTATCCCATGATCCTTCGTGTGTCAACTTCACTTGTCTCTCTCCAAATTTTTTCGTCGTATCCCATGATCCTTCCTCCCCTCCAAATTTTTTCGTCGTATCACAGTA
DNA 2: TACTGTGATACGACGAAAAAATTTGGAGGGGAGGAAGGATCATGGGATACGACGAAAAAATTTGGAGAGAGACAAGTGAAGTTGACACACGAAGGATCATGGGATACGACGAAAAAATTA
binding result: no binding
